# Columns and labels:
# [1] = molecular target: human CD112R on CHO-CD112R cells (human) (UniProt Q6DKI7); test: FACS binding to CHO-CD112R cells, MFI-APC, fit of the negative control; unit from the axis
# [2] = molecular target: human CD112R on CHO-CD112R cells (human) (UniProt Q6DKI7); test: FACS binding to CHO-CD112R cells, MFI-APC, ambiguous fit of the negative control; unit from the axis
# Chain of human CD112R on CHO-CD112R cells (human) (Q6DKI7 41-326 limits assumed): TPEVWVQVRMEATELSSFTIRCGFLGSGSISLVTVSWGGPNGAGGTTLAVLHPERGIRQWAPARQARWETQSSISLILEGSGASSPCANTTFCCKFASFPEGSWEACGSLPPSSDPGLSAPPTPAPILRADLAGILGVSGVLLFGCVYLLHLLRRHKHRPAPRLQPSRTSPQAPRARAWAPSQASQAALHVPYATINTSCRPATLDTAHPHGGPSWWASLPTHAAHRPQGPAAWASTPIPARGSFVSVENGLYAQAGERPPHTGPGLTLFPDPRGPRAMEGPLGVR
substance,measurement,setting,value
anti-KLH hu-IgG4 antibody,EC50,[1],26.3 µg/mL
same,EC50,[2],4050 µg/mL
